Laboratory results reported in paper doi:10.1101/2023.03.23.533938 (bioRxiv, 2023).
Where a chain is given by its changes, count along the chain named.

T1: Sfr1, wild type (S. pombe, UniProt Q9USV1 1-299)
T1 sequence: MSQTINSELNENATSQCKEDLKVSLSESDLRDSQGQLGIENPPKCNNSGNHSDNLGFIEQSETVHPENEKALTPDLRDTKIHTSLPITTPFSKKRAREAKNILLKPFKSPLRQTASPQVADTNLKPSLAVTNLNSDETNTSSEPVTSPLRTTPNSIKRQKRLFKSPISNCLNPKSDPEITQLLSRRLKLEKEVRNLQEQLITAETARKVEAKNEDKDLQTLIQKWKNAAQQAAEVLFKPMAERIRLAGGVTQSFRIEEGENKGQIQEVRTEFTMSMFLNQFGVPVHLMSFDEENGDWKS

T2: Swi5-Sfr1 complex, wild type (S. pombe, UniProt Q9USV1;Q9UUB7)
T2 sequence 1: T1 sequence
T2 sequence 2: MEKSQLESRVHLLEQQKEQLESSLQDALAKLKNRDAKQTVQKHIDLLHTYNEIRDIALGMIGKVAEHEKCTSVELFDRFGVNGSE

B1: Swi5 (natural protein)
chain: T2 sequence 2
B2: Swi5-Sfr1 phosphomimetic mutant complex (complex)
chain 1: T1 sequence with S24D, T73D, S109D, S116D, S165D
chain 2: T2 sequence 2
B3: Rad51 (natural protein)
chain: MADTEVEMQVSAADTNNNENGQAQSNYEYDVNVQDEEDEAAAGPMPLQMLEGNGITASDIKKIHEAGYYTVESIAYTPKRQLLLIKGISEAKADKLLGEASKLVPMGFTTATEYHIRRSELITITTGSKQLDTLLQGGVETGSITELFGEFRTGKSQICHTLAVTCQLPIDMGGGEGKCLYIDTEGTFRPVRLLAVADRYGLNGEEVLDNVAYARAYNADHQLELLQQAANMMSESRFSLLVVDSCTALYRTDFSGRGELSARQMHLARFMRTLQRLADEFGIAVVITNQVVAQVDGISFNPDPKKPIGGNILAHSSTTRLSLRKGRGEQRICKIYDSPCLPESEAIFAINSDGVGDPKEIIAPV

Key:
Sfr1, wild type = molecular target: T1, Sfr1, wild type; experiment: SEC
Rad51 = molecular target: B3; experiment: pull-down
[1] = molecular target: T2, Swi5-Sfr1 complex, wild type; experiment: pull-down

B1
binding result (Sfr1, wild type): binds

B2
fold reduction in co-precipitation with Rad51 against wild type (Rad51): ~5 fold

B3
binding result [1]: binds
